Assay results as given in article PMC7613635 (Nature structural & molecular biology, 2022).
Numbering of substitutions follows the chain as printed.

B1: Gallus gallus FANCI, wild type (natural protein, Gallus gallus (chicken), UniProt B0I564 1-1338, looked up)
chain: MAQRILQLAAEGSPERLQEALQGLTEGELGDMVTRQALRGRETAALLKGIFKGSPCSQQSGVLRRLQVYKHCVSLVESGDLHVGKVSEIIGLLMLEARQLPGHALAELATLFVEVIKRGSLSNGKSLELFSTVLTALSNSKESLAYGKGELNGEEFKKQLINTLCSSKWDPQCVIHLANMFRDIPLSGEELQFVVEKVLRMFSKLDLQEIPPLVYQLLLLSAKGSKKTVLEGIISFFNQLDKRQKEEQRVPQSADLEVATVPLDQLRHVEGTVILHIVSAINLDQDIGEELIKHLKTEQQKDPGKALCPFSVSLLLSTAVKHRLQEQIFDFLKTSITRSCKDLQILQASKFLQDLCPQQYDVTAVILEVVKNSAFGWDHVTQGLVDLGFSLMESYEPKKSFGGKAAETNLGLSKMPAQQACKLGASILLETFKVHEPIRSDILEQVLNRVLTKAASPVSHFIDLLSNIVVSAPLVLQNSSSRVTETFDNLSFLPIDTVQGLLRAVQPLLKVSMSVRDSLILVLQKAIFSRQLDARKAAVAGFLLLLRNFKILGSLTSSQCSQAIGATQVQADVHACYNSAANEAFCLEILGSLRRCLSQQADVRLMLYEGFYDVLRRNSQLASSIMETLLSQIKQYYLPQQDLLPPLKLEGCIMAQGDQIFLQEPLAHLLCCIQHCLAWYKSTVHLCKGAEDEEEEEDVGFEQNFEEMLESVTRRMIKSELEDFELDKSADFSPSSGVGVKNNIYAIQVMGICEVLIEYNFKIGNFSKNKFEDVLGLFTCYNKLSEILKEKAGKNKSTLGNRIARSFLSMGFVSTLLTALFRDNAQSHEESLAVLRSSTEFMRYAVSVALQKVQQLEEMGQTDGPDGQNPEKMFQNLCKITRVLLWRYTSIPTAVEESGKKKGKSISLLCLEGLLRIFNTMQQLYAARIPQFLQALDITDGDAEEADINVTEKAAFQIRQFQRSLVNQLSSAEDDFNSKETQLLITILSTLSKLLDPGSQQFLQFLTWTVKICKENALEDLSCCKGLLTLLFSLHVLYKSPVSLLRELAQDIHACLGDIDQDVEIESRSHFAIVNVKTAAPTVCLLVLGQADKVLEEVDWLIKRLTILGSDTSEDSTQASNQTQALEKGVILQLGTLLTVFHELVQTALPAGSCVDSLLRSLSKTYAILTSLIKHYIQACRSTSNTVPGRLEKLVKLSGSHLTPQCYSFITYVQNIHSESLSFAEEKKKKKKEDETAVVSTVMAKVLRDTKPIPNLIFAIEQYEKFLIHLSKKSKVNLMQYMKLSTSRDFRINASMLDSVLQEQNTEDAENEPDNNQSGTAEQPDENQEPQKKRRRKK
B2: phosphomimetic chicken FANCI (I^3D) (natural protein, Gallus gallus (chicken), UniProt B0I564 1-1338, looked up)
chain: B1 chain with S558D, S561D, T567D

Assays:
[1] = target: T1, Gallus gallus FANCD2 (Gallus gallus (chicken), UniProt Q68Y81 1-1439); test: cross-linking
T1 sequence (Q68Y81 whole entry): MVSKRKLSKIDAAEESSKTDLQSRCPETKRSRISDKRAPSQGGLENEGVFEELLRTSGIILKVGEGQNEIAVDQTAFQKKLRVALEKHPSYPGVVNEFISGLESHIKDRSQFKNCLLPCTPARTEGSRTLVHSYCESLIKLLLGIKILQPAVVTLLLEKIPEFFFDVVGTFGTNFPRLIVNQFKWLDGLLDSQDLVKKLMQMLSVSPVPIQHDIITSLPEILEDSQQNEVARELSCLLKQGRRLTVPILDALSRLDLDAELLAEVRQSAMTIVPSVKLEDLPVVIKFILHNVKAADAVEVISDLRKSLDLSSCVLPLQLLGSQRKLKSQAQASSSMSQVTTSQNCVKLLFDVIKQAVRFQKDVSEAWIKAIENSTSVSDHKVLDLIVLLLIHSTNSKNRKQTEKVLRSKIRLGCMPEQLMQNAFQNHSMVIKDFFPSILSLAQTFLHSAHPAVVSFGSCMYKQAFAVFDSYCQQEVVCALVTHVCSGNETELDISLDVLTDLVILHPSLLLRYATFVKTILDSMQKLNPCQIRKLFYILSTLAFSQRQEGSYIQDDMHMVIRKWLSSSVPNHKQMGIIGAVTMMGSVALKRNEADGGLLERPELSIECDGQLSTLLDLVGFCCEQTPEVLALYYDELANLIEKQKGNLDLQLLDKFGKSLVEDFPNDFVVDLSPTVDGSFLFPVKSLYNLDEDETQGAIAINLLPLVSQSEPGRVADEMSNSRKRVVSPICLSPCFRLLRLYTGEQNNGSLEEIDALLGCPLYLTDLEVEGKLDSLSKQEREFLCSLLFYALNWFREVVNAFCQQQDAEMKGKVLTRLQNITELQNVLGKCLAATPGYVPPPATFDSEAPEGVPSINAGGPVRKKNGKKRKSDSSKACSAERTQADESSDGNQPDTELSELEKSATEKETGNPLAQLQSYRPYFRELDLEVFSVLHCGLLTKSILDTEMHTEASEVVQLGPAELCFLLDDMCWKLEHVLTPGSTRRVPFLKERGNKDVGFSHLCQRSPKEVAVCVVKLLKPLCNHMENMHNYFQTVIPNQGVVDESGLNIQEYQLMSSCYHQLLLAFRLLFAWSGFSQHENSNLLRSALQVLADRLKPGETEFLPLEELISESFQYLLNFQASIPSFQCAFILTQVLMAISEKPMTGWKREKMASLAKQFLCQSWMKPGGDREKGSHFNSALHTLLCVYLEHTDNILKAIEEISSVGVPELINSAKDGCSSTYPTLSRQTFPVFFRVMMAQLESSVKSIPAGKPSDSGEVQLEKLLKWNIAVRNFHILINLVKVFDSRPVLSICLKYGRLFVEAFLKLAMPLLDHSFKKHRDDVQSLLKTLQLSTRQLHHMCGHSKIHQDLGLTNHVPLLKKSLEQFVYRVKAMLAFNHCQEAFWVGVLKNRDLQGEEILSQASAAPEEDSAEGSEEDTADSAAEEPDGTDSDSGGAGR

[2] = target: T1, Gallus gallus FANCD2; test: cryo-EM structure

Binder | binding result [1] | binding result [2]
B1 | binds | 
B2 |  | binds
